For this assay, the target named is Bacillus pumilus bilirubin oxidase (Bacillus pumilus). Put plainly: crystal structure; X-ray, 3.5 Å; crystals grown at 20 °C in 0.1 M sodium citrate pH 5.5, 20% PEG 3000; dimer interface analysed with PDBePISA.

For orientation: stoichiometry N means a count of units in the complex or per binding partner. “Bacillus pumilus bilirubin oxidase (enzyme)” registered a stoichiometry N of 2.

(Values after publication PMC9138216.)
